In general, EC50 refers to the concentration giving half of the maximal effect. Higher therefore signals a less potent agent. For orientation: Kd means the constant that tells how readily two partners part at equilibrium. A high value points to weaker binding. As usually defined, the koff is a measure of how fast the partners let go of each other. Higher therefore signals fast dissociation. The term kon denotes the second-order rate constant of association.

Read-outs that look alike come from different tables or passages of the source.

This is an account of results in US20250320294A1.

Assay [1] concerns the target human-CD45RO-ECD-His (human) (UniProt P08575). As to the kind of experiment: ELISA, human-CD45RO-ECD-His-coated plates. A general note: In an ELISA, binding on a coated surface is turned into a signal by an enzyme label.
The target is the same in assay [2]. As to the kind of experiment: ELISA, human-CD45RO-ECD-His-coated plates. The source holds these as a separate data set.
Assay [3] has the same target. As to the kind of experiment: SPR, captured human-CD45RO-ECD-His, 1:1 binding.

For “CD45RO Monoclonal Antibody (UCHL1) (eBioscience™)”, in assay [1], the EC50 came to 0.328 nM. The same substance returned a concentration giving a half-maximal response (EC50) in assay [2] of 0.544 nM. In assay [3], this substance registered a Kd of 433 nM, an off-rate constant (koff) of 0.00373 s⁻¹ and an association rate constant (kon) of 8610 M⁻¹ s⁻¹.
